Test results taken from the supplement of paper PMC10724198.
± gives the standard deviation of the averaged measurements.

How the values were obtained:
Saccharomyces cerevisiae [1] = assay: protein stability index of tFT-peptide fusion (C-terminal peptide) (PSI (0-1 scale)); higher = more stable (slower turnover)
Description: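 MPS profiling in S. cerevisiae of the tFT-X12 degron library: putative degron peptides plus stable controls, 12 aa, fused to the C-terminus of a sfGFP-mCherry timer. Cells are FACS-sorted into 8 mCherry/sfGFP bins and deep-sequenced. PSI runs from 0 (unstable) to 1 (stable). Backgrounds are wild type, das1Δ and doa10Δ at 30 °C, and wild type, das1Δ, cdc34-1 and cdc53-1 at 37 °C; 2-3 technical replicates each.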

Saccharomyces cerevisiae [2] = assay: as above; settings: genetic background: wild type; temperature: 30 C
[3] = genetic background: cdc34-1, temperature: 37 C
[4] = genetic background: cdc53-1, temperature: 37 C
[5] = genetic background: das1 deletion, temperature: 30 C
[6] = genetic background: das1 deletion, temperature: 37 C
[7] = genetic background: doa10 deletion, temperature: 30 C
[8] = genetic background: wild type, temperature: 30 C
[9] = genetic background: wild type, temperature: 37 C
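Also: PSI is a weighted mean of sequencing reads over stability bins, variants kept only with over 10 reads, mCherry proximal and sfGFP distal, peptide attached via GGGS linker.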

## TLVFPRFLFLVV
Saccharomyces cerevisiae [1]; [3]
  protein stability index: 0.348 ± 0.02
Saccharomyces cerevisiae [1]; [4]
  protein stability index: 0.365 ± 0.019
Saccharomyces cerevisiae [1]; [5]
  protein stability index: 0.393 ± 0.031
Saccharomyces cerevisiae [1]; [6]
  protein stability index: 0.493 ± 0.023
Saccharomyces cerevisiae [1]; [7]
  protein stability index: 0.518 ± 0.011
Saccharomyces cerevisiae [1]; [8]
  protein stability index: 0.363 ± 0.028
Saccharomyces cerevisiae [1]; [9]
  protein stability index: 0.432 ± 0.0083
Saccharomyces cerevisiae [2]
  protein stability index: 0.452 ± 0.066

## TNHRVRHWILRV
Saccharomyces cerevisiae [1]; [3]
  protein stability index: 0.665 ± 0.013
Saccharomyces cerevisiae [1]; [4]
  protein stability index: 0.721 ± 0.0099
Saccharomyces cerevisiae [1]; [5]
  protein stability index: 0.609 ± 0.024
Saccharomyces cerevisiae [1]; [6]
  protein stability index: 0.713 ± 0.02
Saccharomyces cerevisiae [1]; [7]
  protein stability index: 0.253 ± 0.022
Saccharomyces cerevisiae [1]; [8]
  protein stability index: 0.301 ± 0.019
Saccharomyces cerevisiae [1]; [9]
  protein stability index: 0.517 ± 0.0083
Saccharomyces cerevisiae [2]
  protein stability index: 0.396 ± 0.031

## TPLLPPSPPPSR
Saccharomyces cerevisiae [1]; [3]
  protein stability index: 0.647 ± 0.02
Saccharomyces cerevisiae [1]; [5]
  protein stability index: 0.27 ± 0.02
Saccharomyces cerevisiae [1]; [6]
  protein stability index: 0.46 ± 0.0089
Saccharomyces cerevisiae [1]; [7]
  protein stability index: 0.244 ± 0.0028
Saccharomyces cerevisiae [1]; [8]
  protein stability index: 0.277 ± 0.017
Saccharomyces cerevisiae [1]; [9]
  protein stability index: 0.4348 ± 0.0042
Saccharomyces cerevisiae [2]
  protein stability index: 0.3328 ± 0.0026

## TRPHPLRRVFIF
Saccharomyces cerevisiae [1]; [3]
  protein stability index: 0.669 ± 0.034
Saccharomyces cerevisiae [1]; [4]
  protein stability index: 0.725 ± 0.013
Saccharomyces cerevisiae [1]; [5]
  protein stability index: 0.643 ± 0.0072
Saccharomyces cerevisiae [1]; [6]
  protein stability index: 0.735 ± 0.013
Saccharomyces cerevisiae [1]; [7]
  protein stability index: 0.226 ± 0.013
Saccharomyces cerevisiae [1]; [8]
  protein stability index: 0.23 ± 0.038
Saccharomyces cerevisiae [1]; [9]
  protein stability index: 0.433 ± 0.041
Saccharomyces cerevisiae [2]
  protein stability index: 0.293 ± 0.026

## TRSLLFANRCIV
Saccharomyces cerevisiae [1]; [3]
  protein stability index: 0.66 ± 0.047
Saccharomyces cerevisiae [1]; [4]
  protein stability index: 0.706 ± 0.033
Saccharomyces cerevisiae [1]; [5]
  protein stability index: 0.619 ± 0.017
Saccharomyces cerevisiae [1]; [6]
  protein stability index: 0.737 ± 0.0079
Saccharomyces cerevisiae [1]; [7]
  protein stability index: 0.269 ± 0.0075
Saccharomyces cerevisiae [1]; [8]
  protein stability index: 0.304 ± 0.025
Saccharomyces cerevisiae [1]; [9]
  protein stability index: 0.503 ± 0.009
Saccharomyces cerevisiae [2]
  protein stability index: 0.396 ± 0.014

## TVCSWSALSRFM
Saccharomyces cerevisiae [1]; [3]
  protein stability index: 0.691 ± 0.042
Saccharomyces cerevisiae [1]; [4]
  protein stability index: 0.7558 ± 0.0062
Saccharomyces cerevisiae [1]; [5]
  protein stability index: 0.6449 ± 0.0016
Saccharomyces cerevisiae [1]; [6]
  protein stability index: 0.76419 ± 0.00033
Saccharomyces cerevisiae [1]; [7]
  protein stability index: 0.631 ± 0.032
Saccharomyces cerevisiae [1]; [8]
  protein stability index: 0.627 ± 0.015
Saccharomyces cerevisiae [1]; [9]
  protein stability index: 0.705 ± 0.0097
Saccharomyces cerevisiae [2]
  protein stability index: 0.587 ± 0.15

## TVILVLFPSPFL
Saccharomyces cerevisiae [1]; [3]
  protein stability index: 0.589 ± 0.036
Saccharomyces cerevisiae [1]; [4]
  protein stability index: 0.679 ± 0.012
Saccharomyces cerevisiae [1]; [5]
  protein stability index: 0.472 ± 0.037
Saccharomyces cerevisiae [1]; [6]
  protein stability index: 0.671 ± 0.023
Saccharomyces cerevisiae [1]; [7]
  protein stability index: 0.448 ± 0.014
Saccharomyces cerevisiae [1]; [8]
  protein stability index: 0.484 ± 0.01
Saccharomyces cerevisiae [1]; [9]
  protein stability index: 0.597 ± 0.017
Saccharomyces cerevisiae [2]
  protein stability index: 0.51 ± 0.021

## VAFFSVFYWLEC
Saccharomyces cerevisiae [1]; [3]
  protein stability index: 0.287 ± 0.069
Saccharomyces cerevisiae [1]; [4]
  protein stability index: 0.424 ± 0.066
Saccharomyces cerevisiae [1]; [5]
  protein stability index: 0.299 ± 0.021
Saccharomyces cerevisiae [1]; [6]
  protein stability index: 0.47 ± 0.033
Saccharomyces cerevisiae [1]; [7]
  protein stability index: 0.261 ± 0.0032
Saccharomyces cerevisiae [1]; [8]
  protein stability index: 0.29 ± 0.034
Saccharomyces cerevisiae [1]; [9]
  protein stability index: 0.454 ± 0.018
Saccharomyces cerevisiae [2]
  protein stability index: 0.365 ± 0.023

## VARRRQQWMRGS
Saccharomyces cerevisiae [1]; [3]
  protein stability index: 0.517 ± 0.066
Saccharomyces cerevisiae [1]; [4]
  protein stability index: 0.56 ± 0.034
Saccharomyces cerevisiae [1]; [5]
  protein stability index: 0.5261 ± 0.003
Saccharomyces cerevisiae [1]; [6]
  protein stability index: 0.54643 ± 0.00042
Saccharomyces cerevisiae [1]; [7]
  protein stability index: 0.529 ± 0.0063
Saccharomyces cerevisiae [1]; [8]
  protein stability index: 0.516 ± 0.025
Saccharomyces cerevisiae [1]; [9]
  protein stability index: 0.5449 ± 0.004
Saccharomyces cerevisiae [2]
  protein stability index: 0.517 ± 0.041

## VCAFCLFFVPLP
Saccharomyces cerevisiae [1]; [3]
  protein stability index: 0.5888 ± 0.00072
Saccharomyces cerevisiae [1]; [4]
  protein stability index: 0.668 ± 0.023
Saccharomyces cerevisiae [1]; [5]
  protein stability index: 0.425 ± 0.038
Saccharomyces cerevisiae [1]; [6]
  protein stability index: 0.6497 ± 0.0021
Saccharomyces cerevisiae [1]; [7]
  protein stability index: 0.3831 ± 0.0035
Saccharomyces cerevisiae [1]; [8]
  protein stability index: 0.413 ± 0.022
Saccharomyces cerevisiae [1]; [9]
  protein stability index: 0.593 ± 0.012
Saccharomyces cerevisiae [2]
  protein stability index: 0.47 ± 0.013

## VCFWCLYVMFSL
Saccharomyces cerevisiae [1]; [3]
  protein stability index: 0.46 ± 0.043
Saccharomyces cerevisiae [1]; [4]
  protein stability index: 0.494 ± 0.01
Saccharomyces cerevisiae [1]; [5]
  protein stability index: 0.383 ± 0.019
Saccharomyces cerevisiae [1]; [6]
  protein stability index: 0.463 ± 0.0068
Saccharomyces cerevisiae [1]; [7]
  protein stability index: 0.372 ± 0.0057
Saccharomyces cerevisiae [1]; [8]
  protein stability index: 0.363 ± 0.021
Saccharomyces cerevisiae [1]; [9]
  protein stability index: 0.471 ± 0.022
Saccharomyces cerevisiae [2]
  protein stability index: 0.418 ± 0.018

## VCIPLLVIRFLV
Saccharomyces cerevisiae [1]; [3]
  protein stability index: 0.098 ± 0.013
Saccharomyces cerevisiae [1]; [4]
  protein stability index: 0.182 ± 0.014
Saccharomyces cerevisiae [1]; [5]
  protein stability index: 0.234 ± 0.022
Saccharomyces cerevisiae [1]; [6]
  protein stability index: 0.386 ± 0.029
Saccharomyces cerevisiae [1]; [7]
  protein stability index: 0.0616 ± 0.019
Saccharomyces cerevisiae [1]; [8]
  protein stability index: 0.0599 ± 0.014
Saccharomyces cerevisiae [1]; [9]
  protein stability index: 0.0485 ± 0.00051
Saccharomyces cerevisiae [2]
  protein stability index: 0.109 ± 0.0095

## VCLFSVCLWFVS
Saccharomyces cerevisiae [1]; [3]
  protein stability index: 0.0838 ± 0.025
Saccharomyces cerevisiae [1]; [4]
  protein stability index: 0.219 ± 0.062
Saccharomyces cerevisiae [1]; [5]
  protein stability index: 0.16 ± 0.026
Saccharomyces cerevisiae [1]; [6]
  protein stability index: 0.313 ± 0.011
Saccharomyces cerevisiae [1]; [7]
  protein stability index: 0.124 ± 0.0088
Saccharomyces cerevisiae [1]; [8]
  protein stability index: 0.141 ± 0.015
Saccharomyces cerevisiae [1]; [9]
  protein stability index: 0.227 ± 0.013
Saccharomyces cerevisiae [2]
  protein stability index: 0.21 ± 0.044

## VCLLVSVCLLWL
Saccharomyces cerevisiae [1]; [3]
  protein stability index: 0.172 ± 0.0043
Saccharomyces cerevisiae [1]; [4]
  protein stability index: 0.244 ± 0.047
Saccharomyces cerevisiae [1]; [5]
  protein stability index: 0.21 ± 0.013
Saccharomyces cerevisiae [1]; [6]
  protein stability index: 0.329 ± 0.021
Saccharomyces cerevisiae [1]; [7]
  protein stability index: 0.18 ± 0.023
Saccharomyces cerevisiae [1]; [8]
  protein stability index: 0.192 ± 0.025
Saccharomyces cerevisiae [1]; [9]
  protein stability index: 0.309 ± 0.016
Saccharomyces cerevisiae [2]
  protein stability index: 0.252 ± 0.015

## VCLVFLFQFVLI
Saccharomyces cerevisiae [1]; [3]
  protein stability index: 0.482 ± 0.094
Saccharomyces cerevisiae [1]; [4]
  protein stability index: 0.507 ± 0.029
Saccharomyces cerevisiae [1]; [5]
  protein stability index: 0.406 ± 0.023
Saccharomyces cerevisiae [1]; [6]
  protein stability index: 0.517 ± 0.0061
Saccharomyces cerevisiae [1]; [7]
  protein stability index: 0.442 ± 0.028
Saccharomyces cerevisiae [1]; [8]
  protein stability index: 0.41 ± 0.0094
Saccharomyces cerevisiae [1]; [9]
  protein stability index: 0.491 ± 0.01
Saccharomyces cerevisiae [2]
  protein stability index: 0.481 ± 0.011

## VCMVLCRWRGLG
Saccharomyces cerevisiae [1]; [3]
  protein stability index: 0.601 ± 0.028
Saccharomyces cerevisiae [1]; [4]
  protein stability index: 0.704 ± 0.0075
Saccharomyces cerevisiae [1]; [5]
  protein stability index: 0.6061 ± 0.0028
Saccharomyces cerevisiae [1]; [6]
  protein stability index: 0.6993 ± 0.0046
Saccharomyces cerevisiae [1]; [7]
  protein stability index: 0.219 ± 0.011
Saccharomyces cerevisiae [1]; [8]
  protein stability index: 0.234 ± 0.038
Saccharomyces cerevisiae [1]; [9]
  protein stability index: 0.443 ± 0.026
Saccharomyces cerevisiae [2]
  protein stability index: 0.331 ± 0.01

## VCRCFPVCLFSF
Saccharomyces cerevisiae [1]; [3]
  protein stability index: 0.6178 ± 0.0049
Saccharomyces cerevisiae [1]; [4]
  protein stability index: 0.692 ± 0.014
Saccharomyces cerevisiae [1]; [5]
  protein stability index: 0.523 ± 0.023
Saccharomyces cerevisiae [1]; [6]
  protein stability index: 0.706 ± 0.027
Saccharomyces cerevisiae [1]; [7]
  protein stability index: 0.294 ± 0.0057
Saccharomyces cerevisiae [1]; [8]
  protein stability index: 0.341 ± 0.029
Saccharomyces cerevisiae [1]; [9]
  protein stability index: 0.519 ± 0.02
Saccharomyces cerevisiae [2]
  protein stability index: 0.413 ± 0.031

## VCVRLVHCLVLV
Saccharomyces cerevisiae [1]; [3]
  protein stability index: 0.2359 ± 0.0019
Saccharomyces cerevisiae [1]; [4]
  protein stability index: 0.2514 ± 0.0021
Saccharomyces cerevisiae [1]; [5]
  protein stability index: 0.208 ± 0.02
Saccharomyces cerevisiae [1]; [6]
  protein stability index: 0.332 ± 0.0068
Saccharomyces cerevisiae [1]; [7]
  protein stability index: 0.177 ± 0.01
Saccharomyces cerevisiae [1]; [8]
  protein stability index: 0.174 ± 0.017
Saccharomyces cerevisiae [1]; [9]
  protein stability index: 0.283 ± 0.014
Saccharomyces cerevisiae [2]
  protein stability index: 0.265 ± 0.031

## VFCCHSSRFVFA
Saccharomyces cerevisiae [1]; [3]
  protein stability index: 0.642 ± 0.027
Saccharomyces cerevisiae [1]; [4]
  protein stability index: 0.6789 ± 0.0065
Saccharomyces cerevisiae [1]; [5]
  protein stability index: 0.525 ± 0.025
Saccharomyces cerevisiae [1]; [6]
  protein stability index: 0.6858 ± 0.0031
Saccharomyces cerevisiae [1]; [7]
  protein stability index: 0.49 ± 0.016
Saccharomyces cerevisiae [1]; [8]
  protein stability index: 0.501 ± 0.028
Saccharomyces cerevisiae [1]; [9]
  protein stability index: 0.623 ± 0.019
Saccharomyces cerevisiae [2]
  protein stability index: 0.414 ± 0.022

## VFCFCRFHFFCA
Saccharomyces cerevisiae [1]; [3]
  protein stability index: 0.621 ± 0.066
Saccharomyces cerevisiae [1]; [4]
  protein stability index: 0.649 ± 0.0077
Saccharomyces cerevisiae [1]; [5]
  protein stability index: 0.496 ± 0.025
Saccharomyces cerevisiae [1]; [6]
  protein stability index: 0.631 ± 0.026
Saccharomyces cerevisiae [1]; [7]
  protein stability index: 0.432 ± 0.019
Saccharomyces cerevisiae [1]; [8]
  protein stability index: 0.453 ± 0.02
Saccharomyces cerevisiae [1]; [9]
  protein stability index: 0.563 ± 0.018
Saccharomyces cerevisiae [2]
  protein stability index: 0.484 ± 0.026
